Reference: the supplement of paper PMC10567573

B1: TRIM43 (parent)
chain: YQEIFQQLQRSWVKMDQKSKHLKE

Variants of: B1
Assay: protein stability index of a GFP-peptide fusion (GPS, HEK-293T) (PSI 1-6); higher = more stable
Conditions: c terminus: a fixed tail appended
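Note: lentivirally expressed fusions sorted by FACS into six bins by GFP to DsRed ratio, PSI derived from sequencing read proportions per bin multiplied by bin number.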

Protein stability index: each site, then its substitutions
V13: Q 2.2 | R 1.53 | Y 2.21 | K 2.3 | N 2.22 | T 2.08 | I 2.14 | L 1.92 | P 2.62 | S 2.38 | D 2.54 | E 3.48 | H 2.48 | G 2.79 | F 2.07
H21: D 2.56 | W 1.53 | N 2.59 | K 2.04 | I 2.09 | F 1.94 | R 2.53 | S 2.37 | Q 2.28 | M 2.5 | V 1.79 | A 2.23 | L 1.91 | E 2.68 | C 2.65 | G 2.33
Q7: E 2.52 | F 1.52 | K 1.61 | S 2.89 | R 1.66 | C 1.94 | N 2.23 | I 2.08 | V 1.65 | H 2.42
K23: Y 1.58 | A 2.92 | I 3.31 | D 2.41 | W 2.33 | N 2.03 | M 2.33 | V 1.92 | S 2.15 | G 2.54 | F 1.47 | T 2.14 | P 2.08 | R 1.22
L8: D 2.71 | A 2.78 | H 3.06 | M 2.66 | C 2.44 | I 1.97 | Y 2.66 | S 2.58 | F 2.62 | V 2.09 | N 2.87 | P 2.06 | R 3.03 | Q 2.88 | E 3.06 | G 2.74
Q9: Y 2.67 | E 2.72 | C 1.4 | L 1.83 | I 1.71 | W 2.39 | A 1.83 | G 2.59 | F 2.23 | K 1.88 | T 2.19 | S 2.58 | V 1.88
K14: T 2.25 | F 2.35 | A 2.1 | I 1.86 | G 2.6 | Y 2.2 | R 1.94 | S 2.1 | C 1.97 | D 2.77 | V 2.18
K20: M 2.24 | W 2.42 | Q 2.36 | I 1.95 | S 1.85 | C 1.76 | D 2 | L 1.82 | E 2.85 | R 1.59 | G 2.31 | H 2.19 | T 1.86 | N 2.44
Q2: A 1.84 | C 2.36 | L 1.67 | P 2.15 | H 1.58 | W 2.3 | K 2.19 | G 1.66 | V 1.72 | M 1.82 | N 2.14 | E 3.44
D16: E 2.13 | N 3.48 | G 1.76 | P 2.12 | A 3.13 | W 2.96 | H 2.73 | V 1.69 | T 2.09 | Q 2.52 | I 2.51
Q17: D 2.01 | L 1.92 | H 2.12 | W 1.72 | K 2.1 | I 1.73 | E 1.98 | R 2.19 | M 1.73 | C 2.05 | G 1.96 | F 2.68 | N 2.89 | Y 1.72
E24: C 2.13 | T 1.91 | D 2.48 | P 1.81 | G 1.78 | S 2.78 | M 1.71 | N 2.28 | A 1.89 | Q 1.57
S19: F 1.95 | D 2.68 | V 2.12 | W 2.56 | P 2.3 | H 1.83 | L 3.31 | G 1.86 | T 2.86 | Y 3 | A 3.09 | M 2.44
I4: T 1.96 | L 2.19 | C 1.44 | R 2.05 | N 1.61 | V 2.16 | Y 1.5 | Q 1.85 | D 1.47 | G 1.01 | P 1.93 | W 2.94
E3: N 1.58 | A 2.23 | F 1.53 | W 1.68 | Y 2.39 | V 1.93 | R 3.7 | G 1.35 | H 2.47 | S 2.11 | T 1.52 | K 1.76 | M 2.13
S11: A 1.34 | L 2.21 | V 1.63 | N 2.73 | G 2.1 | E 1.75 | W 1.56 | Q 1.8 | R 1.82 | K 1.93 | M 1.93 | Y 2.65
M15: S 2.46 | P 3.15 | A 2.37 | Q 2.3 | T 2.53 | C 2.32 | I 1.62 | Y 2.05 | K 2.61 | E 2.87 | G 2.35 | D 2.54 | W 1.48
L22: P 2.94 | R 2.75 | S 3.29 | K 2.45 | G 2.6 | Q 2.91 | I 2.21 | F 1.91 | W 1.65 | A 2.22 | N 2.53 | T 2.62 | C 2.6 | V 2.39 | E 3.27
Y1: T 2.88 | V 1.29 | A 1.86 | M 1.99 | H 3.7 | D 4.53 | F 1.58 | S 3.7 | W 3.04 | K 3.46 | R 2.96 | N 3.73
R10: E 2.66 | H 2.27 | C 1.96 | K 2.12 | Q 2.35 | W 1.89 | M 2.57 | N 2.84 | D 2.99 | F 1.78
F5: G 3.31 | H 3.65 | S 3.39 | L 2.65 | Y 2.57 | C 2.69 | K 3.17 | T 3.29 | E 4.52 | D 4.05 | R 3.15
W12: D 2.78 | H 2.5 | M 2.42 | P 3.48 | G 2.84 | L 2.4 | K 2.7 | S 2.55 | Q 2.65 | I 2.29 | T 2.88 | A 3.07
Q6: P 2.28 | Y 2.65 | F 1.93 | G 2.52 | L 1.55 | A 2.04 | T 2.8 | W 2.03 | E 2.95 | S 2.19 | D 2.74 | V 1.85 | I 2.27 | R 2.63
K18: D 2.87 | Q 2.4 | M 1.64 | A 2.4 | V 1.69 | H 2.04 | E 2.46 | N 2.34 | C 1.94 | P 2.1 | L 2.31 | W 1.77
